For orientation: stoichiometry N means a count of units in the complex or per binding partner.

The assay deals with Helicobacter pylori HP0231 (DsbK) (Helicobacter pylori). In words: SEC; purified His6-tagged proteins on a calibrated ENrich SEC70 column (Bio-Rad), absorbance at 280 nm; calibrated with Gel Filtration Standard (Bio-Rad). In general terms: SEC sorts molecules by how far they enter the pores of the column.

“Helicobacter pylori HP0231 (DsbK) (enzyme)” had a stoichiometry N of 2.

Source of the values: article PMC4597128.
